Key:
[1] = target: Varicella-Zoster Virus Heterodimer gE/gI (HEK293), His-tag (Native Antigen Company #REC31907-100), a (Varicella-Zoster Virus) (UniProt P09259)
[2] = target: Human Metapneumovirus (hMPV) B Glycoprotein G, His-Tag (HEK293) (Native Antigen Company #REC31948-10 (Human Metapneumovirus (hMPV) B))
[3] = target: Epstein-Barr virus (Herpesvirus 4) EBV Glycoprotein gp350/EBV GP350 Protein (His Tag) (Sino Biologic (Epstein-Barr virus (Herpesvirus 4)) (UniProt P03200))
[4] = target: Influenza B [B/Washington/02/2019 (B/Victoria lineage)-like virus] Hemagglutinin (HA), His-Tag (Nati (Influenza B [B/Washington/02/2019 (B/Victoria lineage)-like virus]))
[5] = target: Human cytomegalovirus (HCMV) Glycoprotein B/gB Protein (His Tag) (Sino Biological 10202-V08H1), as b (Human cytomegalovirus (HCMV))
[6] = target: SARS-CoV-2 (2019-nCoV) Spike S1-His Recombinant Protein (Sino Biological Cat: 40591-VO8H), as barcode-linked antigen (SARS-CoV-2 (2019-nCoV)) (UniProt P0DTC2)
[7] = target: SARS-CoV-2 (2019-nCoV) Spike S1-His Recombinant Protein (Sino Biological Cat: 40591-VO8H), as barcode-linked antigen (SARS-CoV-2 (2019-nCoV)) (UniProt P0DTC2); remark: listed apart in the source

Chain of UniProt P03200 (P03200 1-470): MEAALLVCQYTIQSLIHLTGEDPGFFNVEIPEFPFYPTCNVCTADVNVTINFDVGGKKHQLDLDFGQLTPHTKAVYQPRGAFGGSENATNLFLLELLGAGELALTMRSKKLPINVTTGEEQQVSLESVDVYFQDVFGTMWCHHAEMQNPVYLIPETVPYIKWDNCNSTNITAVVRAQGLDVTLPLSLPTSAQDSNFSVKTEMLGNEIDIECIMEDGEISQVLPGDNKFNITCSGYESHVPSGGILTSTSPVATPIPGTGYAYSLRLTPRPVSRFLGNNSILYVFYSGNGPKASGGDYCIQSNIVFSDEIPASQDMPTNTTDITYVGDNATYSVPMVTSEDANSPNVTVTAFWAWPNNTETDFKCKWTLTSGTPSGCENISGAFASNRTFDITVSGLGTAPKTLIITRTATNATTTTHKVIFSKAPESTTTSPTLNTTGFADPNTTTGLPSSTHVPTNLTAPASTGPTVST
Chain of UniProt P09259 (P09259 31-538 limits assumed, chain 1 of 2): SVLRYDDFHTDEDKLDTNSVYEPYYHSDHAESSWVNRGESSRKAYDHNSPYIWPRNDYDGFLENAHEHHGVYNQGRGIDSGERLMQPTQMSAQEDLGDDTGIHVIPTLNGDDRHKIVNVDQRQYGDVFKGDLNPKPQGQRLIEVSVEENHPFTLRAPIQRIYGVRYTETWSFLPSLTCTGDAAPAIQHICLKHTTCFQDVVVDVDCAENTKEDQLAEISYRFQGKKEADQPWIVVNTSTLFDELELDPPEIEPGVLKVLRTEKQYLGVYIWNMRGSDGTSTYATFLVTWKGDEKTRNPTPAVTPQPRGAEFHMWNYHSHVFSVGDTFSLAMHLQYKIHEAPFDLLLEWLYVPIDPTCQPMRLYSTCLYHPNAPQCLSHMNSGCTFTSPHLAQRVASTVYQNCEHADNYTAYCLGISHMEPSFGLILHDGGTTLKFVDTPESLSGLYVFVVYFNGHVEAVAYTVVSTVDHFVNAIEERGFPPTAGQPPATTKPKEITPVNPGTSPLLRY
Chain of UniProt P09259 (P09258 18-295 limits assumed, chain 2 of 2, further chain): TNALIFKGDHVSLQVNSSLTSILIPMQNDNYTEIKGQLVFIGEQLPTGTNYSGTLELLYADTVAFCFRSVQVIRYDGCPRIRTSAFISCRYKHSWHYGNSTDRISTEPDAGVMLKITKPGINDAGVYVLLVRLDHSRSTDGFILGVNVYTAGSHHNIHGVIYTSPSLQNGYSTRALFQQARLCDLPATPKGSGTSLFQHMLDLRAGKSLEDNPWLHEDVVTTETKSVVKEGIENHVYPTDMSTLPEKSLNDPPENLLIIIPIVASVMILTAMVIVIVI

Substance “SARS-CoV-2 (2019-nCoV) Nucleocapsid Antibody, Rabbit MAb (Sino Biological Cat: 40143-R019)” has a barcode sequence counts (VZV) [1] of 200 counts, a barcode sequence counts (hMPV) [2] of 201 counts and a barcode sequence counts (EBV) [3] of 1080 counts. The barcode sequence counts (FLU B) [4] was 185 counts, the barcode sequence counts (HCMV) [5] was 836 counts and the barcode sequence counts (COVID Spike) [6] was 900 counts. It also gave a Spike #/Nuc # [7] of 0.291.

— patent US20220341931A1
